Article PMC7382298 (Immunity, 2020)
Changes are numbered by the printed parent chain. Names may count otherwise.

Experiments:
[1] = biological target: T1, GST-Mouse full-length GSDMD harboring E369K/L370A mutations (mouse, UniProt Q9D8T2 1-487, E369K | L370A); assay: pull-down
T1 sequence (looked up): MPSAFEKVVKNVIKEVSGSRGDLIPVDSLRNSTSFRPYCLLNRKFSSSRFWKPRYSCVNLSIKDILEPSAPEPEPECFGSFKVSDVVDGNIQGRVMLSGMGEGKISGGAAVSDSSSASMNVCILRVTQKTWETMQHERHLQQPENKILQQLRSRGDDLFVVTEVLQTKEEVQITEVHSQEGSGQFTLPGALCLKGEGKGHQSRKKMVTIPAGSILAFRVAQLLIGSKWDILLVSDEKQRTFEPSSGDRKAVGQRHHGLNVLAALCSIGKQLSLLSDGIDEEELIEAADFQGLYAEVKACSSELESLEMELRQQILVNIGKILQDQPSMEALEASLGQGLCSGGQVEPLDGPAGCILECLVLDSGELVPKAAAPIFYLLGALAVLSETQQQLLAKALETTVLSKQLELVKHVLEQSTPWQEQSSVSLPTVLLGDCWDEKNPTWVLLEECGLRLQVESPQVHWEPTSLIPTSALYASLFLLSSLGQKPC

[2] = biological target: T2, GST-Mouse full-length GSDMD harboring V367A/E369K mutations (mouse, UniProt Q9D8T2 1-487, V367A | E369K); assay: pull-down
T2 sequence (looked up): T1 sequence (looked up) with V367A, A370L

[3] = biological target: T3, GST-Mouse full-length GSDMD harboring L306A/L310A mutations (2A mutant) (mouse, UniProt Q9D8T2 1-487, L306A | L310A); assay: pull-down
T3 sequence (looked up): T1 sequence (looked up) with L306A, L310A, K369E, A370L

[4] = biological target: T4, GST-Mouse full-length GSDMD harboring L361A/V367A/L370A mutations (3A mutant) (mouse, UniProt Q9D8T2 1-487, L361A | V367A | L370A); assay: pull-down
T4 sequence (looked up): T1 sequence (looked up) with L361A, V367A, K369E

[5] = biological target: T5, GST-Human GSDMD harboring truncation of residues 243-278 (human, UniProt P57764 1-484, truncation of residues 243-278); assay: pull-down
T5 sequence (looked up): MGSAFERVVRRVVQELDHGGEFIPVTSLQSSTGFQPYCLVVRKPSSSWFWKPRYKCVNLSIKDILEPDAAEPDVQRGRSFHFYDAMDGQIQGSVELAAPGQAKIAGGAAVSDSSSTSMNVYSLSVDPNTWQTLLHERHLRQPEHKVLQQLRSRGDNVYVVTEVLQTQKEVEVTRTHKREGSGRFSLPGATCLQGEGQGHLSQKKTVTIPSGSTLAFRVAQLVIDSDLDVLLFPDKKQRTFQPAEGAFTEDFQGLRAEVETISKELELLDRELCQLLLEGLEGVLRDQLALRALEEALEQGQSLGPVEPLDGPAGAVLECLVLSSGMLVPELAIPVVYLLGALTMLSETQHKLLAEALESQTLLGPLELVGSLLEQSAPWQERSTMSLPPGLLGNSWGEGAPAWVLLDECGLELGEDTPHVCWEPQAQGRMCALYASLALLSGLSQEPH

[6] = biological target: T6, GST-Mouse full-length wild type GSDMD (mouse, UniProt Q9D8T2 1-487); assay: pull-down
T6 sequence (looked up): T1 sequence (looked up) with K369E, A370L

[7] = biological target: T7, GST-Human full-length wild type GSDMD (human, UniProt P57764 1-484); assay: pull-down
T7 sequence (looked up): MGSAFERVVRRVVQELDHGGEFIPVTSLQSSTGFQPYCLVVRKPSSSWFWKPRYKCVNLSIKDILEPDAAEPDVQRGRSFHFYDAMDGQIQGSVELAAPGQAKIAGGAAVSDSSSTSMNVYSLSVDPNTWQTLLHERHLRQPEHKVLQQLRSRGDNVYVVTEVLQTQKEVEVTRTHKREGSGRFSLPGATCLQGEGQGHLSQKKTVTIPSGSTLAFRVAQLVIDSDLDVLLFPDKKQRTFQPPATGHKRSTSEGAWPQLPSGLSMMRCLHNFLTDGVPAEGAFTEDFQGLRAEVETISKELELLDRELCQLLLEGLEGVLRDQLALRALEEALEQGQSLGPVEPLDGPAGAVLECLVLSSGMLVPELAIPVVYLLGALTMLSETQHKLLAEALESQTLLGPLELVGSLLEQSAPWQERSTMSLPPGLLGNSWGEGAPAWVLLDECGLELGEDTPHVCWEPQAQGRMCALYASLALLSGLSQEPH

[8] = biological target: T8, human GSDMD harboring truncation of residues 243-278 (human, UniProt P57764 1-484, truncation of residues 243-278); assay: SEC
T8 sequence (looked up): T5 sequence (looked up)

[9] = biological target: T9, human full-length wild type gasdermin D (hGSDMD) (human, UniProt P57764 1-484); assay: SEC
T9 sequence (looked up): T7 sequence (looked up)

[10] = biological target: T10, mouse full-length wild type gasdermin D (mGSDMD) (mouse, UniProt Q9D8T2 1-487); assay: SEC
T10 sequence (looked up): T1 sequence (looked up) with K369E, A370L

crystal structure = biological target: the molecule itself; assay: crystal structure

Measured: binding result

B1: human caspase-1 (hCASP1) catalytic domain p22/p10, C285A mutant (enzyme)
chain 1: NPAMPTSSGSEGNVKLCSLEEAQRIWKQKSAEIYPIMDKSSRTRLALIICNEEFDSIPRRTGAEVDITGMTMLLQNLGYSVDVKKNLTASDMTTELEAFAHRPEHKTSDSTFLVFMSHGIREGICGKKHSEQVPDILQLNAIFNMLNTKNCPSLKDKPKVIIIQAARGDSPGVVWFKDSVGVSGNLSLPTTEEFEDD
chain 2: AIKKAHIEKDFIAFCSSTPDNVSWRHPTMGSVFIGRLIEHMQEYACSCDVEEIFRKVRFSFEQPDGRAQMPTTERVTLTRCFYLFPGH
binds: all assays above
